We go through 2 substances from publication PMC6155322.

In experiment [1] the target is pyruvate kinase M2 type (PKM2), human HK-2 cells (human (endogenous in HK-2)) (UniProt P14618). Put plainly: cross-linking; glutaraldehyde chemical cross-linking of scramble siRNA, sirt3 siRNA transfected and TGFβ alone treated HK-2 cells; Western blot. On the technique in general: A western blot detects proteins with antibodies after separation by electrophoresis.
The target of experiment [2] is pyruvate kinase M2 type (PKM2), mouse kidney (mouse (endogenous in kidney)) (UniProt P52480). Put plainly: cross-linking; glutaraldehyde added to clarified kidney lysate (4 mg/mL; sodium phosphate buffer pH 7.3, 0.5% Triton X-100), 37 °C for 10 min, stopped with Tris; 5-20% SDS/PAGE and Western blotting; kidneys of control and diabetic CD-1 and C57Bl6 mice, scramble or sirt3 siRNA injected diabetic mice, DCA treated diabetic mice, KK/Ta-Ins2Akita mice and littermate controls.

Several values for one entry are separate records, joined by “and”; a condition that tells them apart may be missing. Equal values may be shown once.

Sequence of pyruvate kinase M2 type (PKM2), mouse kidney, P52480 1-531 (enzyme; other documents disagree on this pair) (P52480 whole entry): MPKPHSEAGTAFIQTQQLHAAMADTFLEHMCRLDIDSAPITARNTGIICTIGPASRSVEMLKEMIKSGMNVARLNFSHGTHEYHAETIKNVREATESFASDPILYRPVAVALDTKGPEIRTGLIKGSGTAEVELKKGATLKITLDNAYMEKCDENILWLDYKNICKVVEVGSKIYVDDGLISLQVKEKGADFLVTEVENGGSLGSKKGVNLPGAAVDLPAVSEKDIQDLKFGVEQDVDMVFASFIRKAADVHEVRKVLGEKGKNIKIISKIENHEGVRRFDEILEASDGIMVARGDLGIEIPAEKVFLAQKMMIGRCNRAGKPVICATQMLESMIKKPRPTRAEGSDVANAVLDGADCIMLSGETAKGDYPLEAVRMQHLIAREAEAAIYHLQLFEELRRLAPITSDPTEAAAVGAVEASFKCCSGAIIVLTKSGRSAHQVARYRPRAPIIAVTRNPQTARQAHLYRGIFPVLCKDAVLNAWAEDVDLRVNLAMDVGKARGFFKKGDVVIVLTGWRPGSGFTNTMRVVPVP
Sequence of pyruvate kinase M2 type (PKM2), human HK-2 cells, P14618 1-531 (enzyme; other documents disagree on this pair) (P14618 whole entry): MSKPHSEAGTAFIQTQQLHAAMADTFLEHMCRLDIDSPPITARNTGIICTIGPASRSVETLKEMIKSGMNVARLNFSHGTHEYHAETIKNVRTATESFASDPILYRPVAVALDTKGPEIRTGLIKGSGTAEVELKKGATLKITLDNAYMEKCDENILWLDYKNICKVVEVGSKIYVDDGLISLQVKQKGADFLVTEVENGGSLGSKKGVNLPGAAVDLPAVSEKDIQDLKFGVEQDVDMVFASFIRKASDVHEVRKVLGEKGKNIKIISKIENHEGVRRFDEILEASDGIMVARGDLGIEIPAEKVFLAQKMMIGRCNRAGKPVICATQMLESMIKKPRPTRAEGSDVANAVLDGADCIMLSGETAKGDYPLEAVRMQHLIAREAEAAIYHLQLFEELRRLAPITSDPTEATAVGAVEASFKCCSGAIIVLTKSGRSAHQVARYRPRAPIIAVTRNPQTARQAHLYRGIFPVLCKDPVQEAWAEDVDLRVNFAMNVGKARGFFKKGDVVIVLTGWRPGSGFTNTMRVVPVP

For the substance “pyruvate kinase M2 type (PKM2), human HK-2 cells, P14618 1-531 (enzyme; other documents disagree on this pair)”, in experiment [1], the stoichiometry N (in general, a count of units in the complex or per binding partner) was 2.

Regarding “pyruvate kinase M2 type (PKM2), mouse kidney, P52480 1-531 (enzyme; other documents disagree on this pair)”, the stoichiometry N in experiment [2] was 2 and 4.
